According to patent publication US8916684B2, “Bioengineered protein pores” (Syracuse University, priority 2010, dated 2014):

Test: Single-channel electrical recordings of protein pores in planar lipid bilayers
Type: biochemical
Conditions: +40 mV
[1] = 1 M KCl, 10 mM potassium phosphate, pH 7.4

B1: WT-FhuA: wild-type E. coli ferric hydroxamate uptake component A, 714-residue β-barrel outer membrane protein (protein, UniProt P06971 34-747, looked up)
Ferrichrome outer membrane …: AVEPKEDTITVTAAPAPQESAWGPAATIAARQSATGTKTDTPIQKVPQSISVVTAEEMALHQPKSVKEALSYTPGVSVGTRGASNTYDHLIIRGFAAEGQSQNNYLNGLKLQGNFYNDAVIDPYMLERAEIMRGPVSVLYGKSSPGGLLNMVSKRPTTEPLKEVQFKAGTDSLFQTGFDFSDSLDDDGVYSYRLTGLARSANAQQKGSEEQRYAIAPAFTWRPDDKTNFTFLSYFQNEPETGYYGWLPKEGTVEPLPNGKRLPTDFNEGAKNNTYSRNEKMVGYSFDHEFNDTFTVRQNLRFAENKTSQNSVYGYGVCSDPANAYSKQCAALAPADKGHYLARKYVVDDEKLQNFSVDTQLQSKFATGDIDHTLLTGVDFMRMRNDINAWFGYDDSVPLLNLYNPVNTDFDFNAKDPANSGPYRILNKQKQTGVYVQDQAQWDKVLVTLGGRYDWADQESLNRVAGTTDKRDDKQFTWRGGVNYLFDNGVTPYFSYSESFEPSSQVGKDGNIFAPSKGKQYEVGVKYVPEDRPIVVTGAVYNLTKTNNLMADPEGSFFSVEGGEIRARGVEIEAKAALSASVNVVGSYTYTDAEYTTDTTYKGNTPAQVPKHMASLWADYTFFDGPLSGLTLGTGGRYTGSSYGDPANSFKVGSYTVVDALVRYDLARVGMAGSNVALHVNNLFDREYVASCFNTYGCFWGAERQVVATATFRF
For B1, the “all-points histogram current amplitude peak” value was ~12.5 pA, the Conductance [1] was 0.3 ± 0.2 nS and the single-channel conductance [1] was 0.3±0.2 nS.
